Experimental data reported in patent US20090031441A1 (NATIONAL UNIVERSITY CORPORATION NAGOYA UNIVERSITY, published 2009).

T1: GAI (Arabidopsis DELLA protein), yeast two-hybrid prey in pGADT7 AD vector (Arabidopsis, UniProt Q9LQT8 1-533)
T1 construct: also called AtDELLA
T1 sequence (looked up): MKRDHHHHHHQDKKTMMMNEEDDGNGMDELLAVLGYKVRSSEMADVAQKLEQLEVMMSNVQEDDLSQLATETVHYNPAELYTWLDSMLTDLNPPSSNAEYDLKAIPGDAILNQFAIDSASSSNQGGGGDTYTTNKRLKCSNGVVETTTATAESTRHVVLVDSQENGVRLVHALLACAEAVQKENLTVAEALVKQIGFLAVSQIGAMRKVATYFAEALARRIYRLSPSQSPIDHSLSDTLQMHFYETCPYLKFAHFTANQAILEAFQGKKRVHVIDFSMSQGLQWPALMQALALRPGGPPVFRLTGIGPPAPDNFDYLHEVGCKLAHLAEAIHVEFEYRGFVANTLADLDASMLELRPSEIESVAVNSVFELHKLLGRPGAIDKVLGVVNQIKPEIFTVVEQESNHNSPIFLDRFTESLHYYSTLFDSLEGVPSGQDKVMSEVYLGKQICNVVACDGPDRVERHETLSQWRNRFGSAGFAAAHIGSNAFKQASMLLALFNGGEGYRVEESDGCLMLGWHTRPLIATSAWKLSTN

T2: RGL3 (Arabidopsis DELLA protein), yeast two-hybrid prey in pGADT7 AD vector (Arabidopsis, UniProt Q9LF53 1-523)
T2 construct: also called AtDELLA
T2 sequence (looked up): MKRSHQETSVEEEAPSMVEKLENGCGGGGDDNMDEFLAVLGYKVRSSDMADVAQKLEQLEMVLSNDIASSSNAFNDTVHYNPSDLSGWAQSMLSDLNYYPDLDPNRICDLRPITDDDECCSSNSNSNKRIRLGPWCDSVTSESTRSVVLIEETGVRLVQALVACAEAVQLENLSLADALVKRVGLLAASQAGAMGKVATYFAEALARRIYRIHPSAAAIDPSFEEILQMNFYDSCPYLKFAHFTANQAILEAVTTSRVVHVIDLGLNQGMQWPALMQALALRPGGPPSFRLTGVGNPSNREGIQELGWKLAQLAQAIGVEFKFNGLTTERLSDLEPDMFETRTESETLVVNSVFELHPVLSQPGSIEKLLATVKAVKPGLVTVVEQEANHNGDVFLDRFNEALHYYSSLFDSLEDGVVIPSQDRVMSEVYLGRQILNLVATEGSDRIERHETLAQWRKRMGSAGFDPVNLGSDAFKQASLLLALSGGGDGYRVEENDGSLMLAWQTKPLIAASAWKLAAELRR


Assays:
[1] = biological target: T1, GAI (Arabidopsis DELLA protein), yeast …; assay: yeast two-hybrid, AtGID1 bait and AtDELLA prey, 10^-5 M GA4 in medium; colony growth (Assay A) and beta-galactosidase activity (Assay B)
Protocol: (§1) Panel A) depicts AtGID1-AtDELLA interaction in the presence of GA in two types of yeast hybrid (Y2H) assays. Each AtGID1 was used as a bait while AtDELLA was a prey. GA₄ (10⁻⁵ M) was added to the medium. The bars indicates β-galactosidase activity when o-nitrophenol-β-D-galactopyranoside was used as a substrate (Assay B). The growth of each transformant in the defined medium for 2 days (Assay A) is shown beneath of each bar graph. The experiment was carried out in quadruplicate. The SD value shown in the figure was determined from three measurements. Panel B) depicts the dose response in AtGID1-RGA interaction in Assay B of Y2H. GA₄ (10⁻⁵ to 10⁻⁹ M) was added to the medium. The experiment was conducted in duplicates. The SD value shown in the figure was determined from three measurements. Panel C) depicts the results of an evaluation of the in vitro GA-binding potency of AtGID1 using AtDELLA. Left panel, 15 minutes after mixing AtGID1c (C), tritiated GA, with an excess amount of non-labeled GA (+) or without non-labeled GA (−). GAI (G) or RGA (R) was added, and then the GA-binding activity in each reaction mixture was measured according to the standard method. Recombinant protein originating from the vector (v) was used as a negative control. The experiment was carried out in duplicates. The SD value was determined from three measurements. Right panel, a profile of Western blotting for recombinant AtDELLA using an antibody to His tag. G, GAI; R, RGA; v, vector; M, molecular weight marker.
(§2) Arabidopsis has five DELLA proteins (RGA, GAI, RGL1, RGL2, and RGL3; collectively designated AtDELLA; Fleet, C. M., and Sun, T.-P. (2005) Curr. Opin. Plant Biol., 8, 77-85; Dill, A., and Sun, T. (2001) Genetics, 159, 777-785); therefore, there are 15 possible combinations of GID1/DELLA proteins. To verify the positive interactions between AtGID1-AtDELLA, two experiments were conducted using the yeast two hybrid (Y2H) system. […] In the second experiment (Assay B), β-galactosidase activity was measured, as reporter gene product of AtGID1-AtDELLA interactions. […]

[2] = biological target: T2, RGL3 (Arabidopsis DELLA protein), yeast …; assay: as above
Protocol: as §1, §2

Binder | binding result [1] | binding result [2]
AtGID1a (At3g05120), yeast two-hybrid bait in pGBKT7 DNA-BD vector (receptor, not shown: small tags and cut ends, Bait fusion for the Y2H assays (BD Matchmaker Two-hybrid System 3); also called Arabidopsis GID1) MAASDEVNLIESRTVVPLNTWVLISNFKVAYNILRRPDGTFNRHLAEYLDRKVTANANPVDGVFSFDVLIDRRINLLSRVYRPAYADQEQPPSILDLEKPVDGDIVPVILFFHGGSFAHSSANSAIYDTLCRRLVGLCKCVVVSVNYRRAPENPYPCAYDDGWIALNWVNSRSWLKSKKDSKVHIFLAGDSSGGNIAHNVALRAGESGIDVLGNILLNPMFGGNERTESEKSLDGKYFVTVRDRDWYWKAFLPEGEDREHPACNPFSPRGKSLEGVSFPKSLVVVAGLDLIRDWQLAYAEGLKKAGQEVKLMHLEKATVGFYLLPNNNHFHNVMDEISAFVNAEC | binds | –
AtGID1b (At3g63010), yeast two-hybrid bait in pGBKT7 DNA-BD vector (receptor, not shown: small tags and cut ends, Bait fusion for the Y2H assays; also called Arabidopsis GID1) MAGGNEVNLNECKRIVPLNTWVLISNFKLAYKVLRRPDGSFNRDLAEFLDRKVPANSFPLDGVFSFDHVDSTTNLLTRIYQPASLLHQTRHGTLELTKPLSTTEIVPVLIFFHGGSFTHSSANSAIYDTFCRRLVTICGVVVVSVDYRRSPEHRYPCAYDDGWNALNWVKSRVWLQSGKDSNVYVYLAGDSSGGNIAHNVAVRATNEGVKVLGNILLHPMFGGQERTQSEKTLDGKYFVTIQDRDWYWRAYLPEGEDRDHPACNPFGPRGQSLKGVNFPKSLVVVAGLDLVQDWQLAYVDGLKKTGLEVNLLYLKQATIGFYFLPNNDHFHCLMEELNKFVHSIEDSQSKSSPVLLTP | – | binds
